# Laboratory results reported in patent US7351690B2, “Knockout identification of target-specific sites in peptides” (priority 2000, dated 2008).
# Square brackets hold non-standard residues; d marks the D form. Ends that are not written are not given here. Nle = CCCC[C@H](N)C(=O)O
# How the values were obtained:
# [1] = target: T1, hMC5-R (Homo sapiens, UniProt P33032); assay: competitive inhibition binding assay, 125I-NDP-alpha-MSH, hMC5-R membranes; conditions: 1 μM test peptide; 0.4 nM 125I-NDP-alpha-MSH; hMC5-R membranes
# T1 construct: expressed in transfected cells
# T1 sequence (P33032 whole entry): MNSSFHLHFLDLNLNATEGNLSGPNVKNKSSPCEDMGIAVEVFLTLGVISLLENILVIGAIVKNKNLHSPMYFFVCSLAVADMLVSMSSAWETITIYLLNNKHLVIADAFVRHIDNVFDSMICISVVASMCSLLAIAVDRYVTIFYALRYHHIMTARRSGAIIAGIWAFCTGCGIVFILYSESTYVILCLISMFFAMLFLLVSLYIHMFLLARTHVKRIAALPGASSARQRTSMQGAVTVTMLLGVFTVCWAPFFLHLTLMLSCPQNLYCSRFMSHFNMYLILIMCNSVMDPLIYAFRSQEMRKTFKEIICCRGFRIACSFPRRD
# Procedure: (§1) The competitive inhibition binding assay was conducted using membranes prepared from hMC3-R, hMC4-R, hMC5-R, and B-16 mouse melanoma cells (containing MC1-R) using 0.4 nM ^125I-NDP-alpha-MSH (New England Nuclear, Boston, Mass., USA) in 50 mM HEPES buffer containing 1 mM MgCl2, 2 mM CaCl2, and 5 mM KCl, at pH 7.2. The assay tube also contained a chosen concentration of the test peptide of this invention complexed to a rhenium metal ion, typically at a 1 μM concentration, for determining its efficacy in inhibiting the binding of ^125I-NDP-alpha-MSH to its receptor. Non-specific binding was measured by complete inhibition of binding of ^125I-NDP-alpha-MSH in the assay with the presence of 1 μM alpha-MSH. Incubation was for 90 minutes at room temperature, after which the assay mixture was filtered and the membranes washed three times with ice cold buffer. The filter was dried and counted in a gamma counter for remaining radioactivity bound to the membranes. 100% specific binding was defined as the difference in radioactivity (cpm) bound to cell membranes in the absence and presence of 1 μM alpha-MSH. The cpm obtained in presence of test compounds were normalized with respect to 100% specific binding to determine the percent inhibition of ^125I-NDP-alpha MSH binding. Each assay was conducted in triplicate and the actual mean valves are described.
# [2] = target: T2, hMC3-R (Homo sapiens, UniProt P41968); assay: competitive inhibition binding assay, 125I-NDP-alpha-MSH, hMC3-R membranes; conditions: 1 μM test peptide; 0.4 nM 125I-NDP-alpha-MSH; hMC3-R membranes
# T2 construct: expressed in transfected cells
# T2 sequence (P41968 whole entry): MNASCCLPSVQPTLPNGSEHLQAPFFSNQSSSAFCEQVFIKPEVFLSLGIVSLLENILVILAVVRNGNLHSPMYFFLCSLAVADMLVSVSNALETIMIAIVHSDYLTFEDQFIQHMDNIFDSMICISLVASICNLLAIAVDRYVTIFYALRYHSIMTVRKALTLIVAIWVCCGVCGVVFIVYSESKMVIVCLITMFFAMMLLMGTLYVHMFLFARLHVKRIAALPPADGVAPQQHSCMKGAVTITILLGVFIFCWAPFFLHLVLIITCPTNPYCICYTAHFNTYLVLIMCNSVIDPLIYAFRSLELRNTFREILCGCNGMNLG
# Procedure: as §1
# [3] = target: T3, hMC4-R (Homo sapiens, UniProt P32245); assay: competitive inhibition binding assay, 125I-NDP-alpha-MSH, hMC4-R membranes; conditions: 1 μM test peptide; 0.4 nM 125I-NDP-alpha-MSH; hMC4-R membranes
# T3 construct: expressed in transfected cells
# T3 sequence (P32245 whole entry): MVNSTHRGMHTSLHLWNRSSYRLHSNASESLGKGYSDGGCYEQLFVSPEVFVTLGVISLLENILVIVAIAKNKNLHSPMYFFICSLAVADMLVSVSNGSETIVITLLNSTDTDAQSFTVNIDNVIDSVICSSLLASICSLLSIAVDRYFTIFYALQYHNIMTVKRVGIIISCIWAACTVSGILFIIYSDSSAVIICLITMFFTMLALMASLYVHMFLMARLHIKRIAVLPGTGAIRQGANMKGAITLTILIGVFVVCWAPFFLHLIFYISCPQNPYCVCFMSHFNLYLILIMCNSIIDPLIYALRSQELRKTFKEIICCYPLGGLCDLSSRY
# Procedure: as §1
# [4] = target: T4, MC1-R (Mus musculus, UniProt Q01727); assay: competitive inhibition binding assay, 125I-NDP-alpha-MSH, B-16 mouse melanoma cell membranes; conditions: 1 μM test peptide; 0.4 nM 125I-NDP-alpha-MSH; B-16 mouse melanoma cell membranes
# T4 construct: membranes prepared from hMC3-R, hMC4-R, hMC5-R, and B-16 mouse melanoma cells (containing MC1-R); endogenous in cells; host or cells: B-16 mouse melanoma cells (membranes)
# T4 sequence (Q01727 whole entry): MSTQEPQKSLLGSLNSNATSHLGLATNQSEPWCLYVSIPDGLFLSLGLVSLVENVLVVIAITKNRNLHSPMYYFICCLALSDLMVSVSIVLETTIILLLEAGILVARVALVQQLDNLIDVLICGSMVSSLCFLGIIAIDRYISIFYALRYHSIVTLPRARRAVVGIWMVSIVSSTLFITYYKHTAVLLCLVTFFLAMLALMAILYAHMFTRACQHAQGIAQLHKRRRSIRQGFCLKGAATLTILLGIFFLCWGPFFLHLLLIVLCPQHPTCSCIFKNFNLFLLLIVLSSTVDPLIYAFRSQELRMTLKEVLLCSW
# Procedure: as §1
Substance,% Inhibition at 1 μM at Melanocortin Receptor 5 [1] [%],% Inhibition at 1 μM at Melanocortin Receptor 3 [2] [%],% Inhibition at 1 μM at Melanocortin Receptor 4 [3] [%],% Inhibition at 1 μM at Melanocortin Receptor 1 [4] [%]
Tyr-Val-Nle-Gly-His-D-Phe-Cys-Arg-Trp-Asp-Arg-Phe-NH2 (YV[Nle]GH[dF]CRWDRF-NH2; also: Re complex) [3-6],31,20,31,52
YVCGH[dF]RWDRF-NH2 [5-9],53,53,66,89
Tyr-Val-Nle-Gly-His-D-Phe-Arg-Trp-Asp-Cys-Phe-NH2 (YV[Nle]GH[dF]RWDCF-NH2; numbers in words are those of the source; also: oxorhenium(V) N3S1 chelate complex (Re=O)) [5-2],61,39,58,95
Ac-Ser-Tyr-Ser-D-Cys-Nle-Glu-His-Phe-Arg-Trp-Gly-Lys-Pro-Val-NH2 (Ac-SYS[dC][Nle]EHFRWGKPV-NH2; not fully specified (bridges); printed as Ac-Ser-Tyr-Ser-D-Cys-Nle-Glu-His-Phe-Arg-Trp-Gly-Lys-Pro-Val-NH2; numbers in words are those of the source; also: oxorhenium(V) N3S1 chelate (Re(V)=O)) [2-11],0,5,37,95
Ac-Ser-Tyr-Ser-Nle-Glu-His-Phe-Arg-Trp-Gly-D-Cys-Lys-Pro-Val-NH2 (chain 1 EHFRWG; chain 2 CKPV; not fully specified; Ac-Ser-Tyr-Ser-Nle N-term; D-residue; amide; printed: Glu-His-Phe-Arg-Trp-Gly-; printed: Cys-Lys-Pro-Val-) [2-4],21,27,40,91
Ac-Ser-Tyr-Ser-Nle-Glu-His-Phe-Cys-Arg-Trp-Gly-Lys-Pro-Val-NH2 (Ac-SYS[Nle]EHFCRWGKPV-NH2; not fully specified (bridges); printed as Ac-Ser-Tyr-Ser-Nle-Glu-His-Phe-Cys-Arg-Trp-Gly-Lys-Pro-Val-NH2; numbers in words are those of the source; also: oxorhenium(V) N3S1 chelate (Re(V)=O)) [1-7],0,0,0,68
Tyr-Val-Nle-Gly-His-D-Phe-Arg-Trp-Asp-Arg-Cys-NH2 (YV[Nle]GH[dF]RWDRC-NH2; numbers in words are those of the source; also: oxorhenium(V) N3S1 chelate complex (Re=O)) [5-1],98,92,95,101
Tyr-Val-Nle-Gly-His-D-Phe-Arg-Trp-Asp-Arg-Phe-Cys-NH2 (FRWDRFC; Tyr-Val-Nle-Gly-His N-term; D-residue; amide; printed: Phe-Arg-Trp-Asp-Arg-Phe-Cys-) [3-1],102,96,98,95
Tyr-Val-Cys-Nle-Gly-His-D-Phe-Arg-Trp-Asp-Arg-Phe-NH2 (YVC[Nle]GH[dF]RWDRF-NH2; also: Re complex) [3-11],92,85,82,95
Tyr-Val-Nle-Gly-Cys-His-D-Phe-Arg-Trp-Asp-Arg-Phe-NH2 (YV[Nle]GCH[dF]RWDRF-NH2; not fully specified (bridges); printed as Tyr-Val-Nle-Gly-Cys-His-D-Phe-Arg-Trp-Asp-Arg-Phe-NH2; numbers in words are those of the source; also: oxorhenium(V) N3S1 chelate complex (Re=O)) [3-9],67,69,55,77
Ac-Ser-Tyr-Ser-Nle-Glu-His-Phe-Arg-Cys-Trp-Gly-Lys-Pro-Val-NH2 (Ac-SYS[Nle]EHFRCWGKPV-NH2; not fully specified (bridges); printed as Ac-Ser-Tyr-Ser-Nle-Glu-His-Phe-Arg-Cys-Trp-Gly-Lys-Pro-Val-NH2; numbers in words are those of the source; also: oxorhenium(V) N3S1 chelate (Re(V)=O)) [1-6],0,0,0,29
Tyr-Val-Nle-Gly-His-D-Phe-Arg-Trp-Cys-Asp-Arg-Phe-NH2 (YV[Nle]GH[dF]RWCDRF-NH2; also: Re complex) [3-4],100,88,94,98
Ac-Ser-Tyr-Ser-Nle-Glu-His-Phe-Arg-Trp-D-Cys-Gly-Lys-Pro-Val-NH2 (chain 1 Ac-SYS[Nle]EHFRW; chain 2 [dC]GKPV-NH2; not fully specified (bridges); numbers in words are those of the source; also: oxorhenium(V) N3S1 chelate (Re(V)=O)) [2-5],0,0,4,43
Ac-Ser-Tyr-Ser-Cys-Nle-Glu-His-Phe-Arg-Trp-Gly-Lys-Pro-Val-NH2 (chain 1 Ac-SYSC[Nle]; chain 2 EHFRWGKPV-NH2; not fully specified (bridges); printed as Ac-Ser-Tyr-Ser-Cys-Nle-Glu-His-Phe-Arg-Trp-Gly-Lys-Pro-Val-NH2; also: oxorhenium(V) N3S1 chelate (Re(V)=O)) [1-11],6,18,21,95
Ac-Ser-Tyr-Ser-Nle-Glu-His-Phe-Arg-Trp-Gly-Lys-Cys-Pro-Val-NH2 (Ac-SYS[Nle]EHFRWGKCPV-NH2; not fully specified (bridges); printed as Ac-Ser-Tyr-Ser-Nle-Glu-His-Phe-Arg-Trp-Gly-Lys-Cys-Pro-Val-NH2; numbers in words are those of the source; also: oxorhenium(V) N3S1 chelate (Re(V)=O)) [1-3],12,0,0,87
Ac-Ser-Tyr-Ser-Nle-Glu-His-Phe-Arg-Trp-Gly-Lys-Gly-Val-Cys-NH2 (Ac-SYS[Nle]EHFRWGKGVC-NH2; not fully specified (bridges); printed as Ac-Ser-Tyr-Ser-Nle-Glu-His-Phe-Arg-Trp-Gly-Lys-Gly-Val-Cys-NH2; numbers in words are those of the source; also: oxorhenium(V) N3S1 chelate (Re(V)=O)) [1-1],68,48,63,95
Tyr-Val-Cys-Nle-Gly-His-Phe-Arg-Trp-Asp-Arg-Phe-NH2 (YVC[Nle]GHFRWDRF-NH2; not fully specified (bridges); printed as Tyr-Val-Cys-Nle-Gly-His-Phe-Arg-Trp-Asp-Arg-Phe-NH2; numbers in words are those of the source; also: oxorhenium(V) N3S1 chelate (Re=O) with Cys) [4-10],17,10,2,28
